From patent US20030130484A1, “Inhibitors and disassemblers of fibrillogenesis” (priority 2001, published 2003)

Target: human Aβ1-40 peptide (human)
Test: cell-based or functional assay

Sequence of human Aβ1-40 peptide (human) (peptide, as listed by the source): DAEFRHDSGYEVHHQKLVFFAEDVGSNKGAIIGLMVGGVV

Substance | Inhibition of Fibrilogenesis IC50 (µM) | Inhibition of Fibrilogenesis ICmax (%) | IC50 of inhibition of Aβ40 fibrillogenesis (inhibitor:Aβ ratio) | Inhibition of Fibrillogenesis IC50 (thioflavin fluorescence) (inhibitor:Aβ40 molar ratio) | Inhibition of Fibrillogenesis ICmax [%] | percent inhibition of fibrillogenesis at concentrations at which Aβ16-22m inhibited completely [%]
Anth-Aβ16-20 (peptide) | 0.3 | 100 |  |  |  | 
Ac-Aβ16-22 (Peptide VI) | 8.4 | 100 | 10 | 8.4 | 100 | 
Aβ16-22 (peptide) | 1.1 | 23 |  | 1.1 | 23 | 10 to 20
